The source of these data is PMC9023281, “Polymerase theta-helicase promotes end joining by stripping single-stranded DNA-binding proteins and bridging DNA ends”.

Data set [1] concerns the target T1, Polθ-h (Polθ helicase domain) (UniProt O75417 1-894). Put plainly: single-molecule ssDNA curtain oligo capture; captured in trans by Polθ-h on RPA-GFP-coated ssDNA; no capture without Polθ-h; Imaging Buffer: 40 mM Tris-HCl pH 8.0, 50 mM NaCl, 2 mM MgCl2, 1 mM DTT, 0.2 mg/ml BSA, 1 mM ATP; EMSA at room temperature, single-molecule at 37 C; PARP-1 tethering without BSA; displacement EMSA in 30 mM HEPES pH 8.0, 50 mM NaCl, 1.5 mM MgCl2, 1 mM DTT. The following applies: protein: recombinant; tags: pET19 N-terminal 6xHis-TwinStrep-SUMO; chain copies: 4; label: 5'-Atto647N. (Mobility shift assays separate free from complexed probe on a gel.)

For data set [2], the target named is T1, Polθ-h (Polθ helicase domain). Put plainly: EMSA; no PARP-1 modification; hyperbolic fit; Imaging Buffer: 40 mM Tris-HCl pH 8.0, 50 mM NaCl, 2 mM MgCl2, 1 mM DTT, 0.2 mg/ml BSA, 1 mM ATP; EMSA at room temperature, single-molecule at 37 C; PARP-1 tethering without BSA; displacement EMSA in 30 mM HEPES pH 8.0, 50 mM NaCl, 1.5 mM MgCl2, 1 mM DTT. The following applies: protein: recombinant; tags: pET19 N-terminal 6xHis-TwinStrep-SUMO; chain copies: 4; label: 5'-32P in EMSA; unlabeled as challenge in tethering assay.

T1 sequence (O75417 1-894): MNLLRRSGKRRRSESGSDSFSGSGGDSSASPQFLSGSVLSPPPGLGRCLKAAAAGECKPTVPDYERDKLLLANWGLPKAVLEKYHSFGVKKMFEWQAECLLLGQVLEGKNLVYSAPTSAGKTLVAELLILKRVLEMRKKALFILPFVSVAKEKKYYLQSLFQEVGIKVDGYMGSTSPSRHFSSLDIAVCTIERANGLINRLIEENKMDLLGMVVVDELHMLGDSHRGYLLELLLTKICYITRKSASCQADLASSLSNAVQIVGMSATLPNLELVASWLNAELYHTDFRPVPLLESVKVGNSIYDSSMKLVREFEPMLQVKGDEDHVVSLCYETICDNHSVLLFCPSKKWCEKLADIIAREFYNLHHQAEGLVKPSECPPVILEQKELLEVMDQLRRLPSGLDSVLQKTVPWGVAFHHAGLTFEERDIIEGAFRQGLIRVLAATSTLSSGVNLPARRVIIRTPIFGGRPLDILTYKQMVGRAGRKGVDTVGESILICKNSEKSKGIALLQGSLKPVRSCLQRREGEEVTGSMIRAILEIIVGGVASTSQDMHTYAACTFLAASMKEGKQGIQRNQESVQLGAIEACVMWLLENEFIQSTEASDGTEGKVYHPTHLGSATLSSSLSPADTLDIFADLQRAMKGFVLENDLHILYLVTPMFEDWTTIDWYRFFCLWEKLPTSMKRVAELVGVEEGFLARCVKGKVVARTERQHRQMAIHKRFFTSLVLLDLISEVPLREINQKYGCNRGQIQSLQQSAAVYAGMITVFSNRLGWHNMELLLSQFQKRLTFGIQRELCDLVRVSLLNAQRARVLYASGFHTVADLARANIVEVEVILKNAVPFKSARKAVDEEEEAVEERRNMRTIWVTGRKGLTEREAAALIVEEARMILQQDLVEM

B1: Noncomp-647N (ssDNA)
DNA: TCCTCTTTTTCTTTTTTTCTTTTCTTCC
In the case of B1, the binding result in data set [1] is reported as “binds”.

B2: dT50 (Poly-T50) (ssDNA)
DNA: TTTTTTTTTTTTTTTTTTTTTTTTTTTTTTTTTTTTTTTTTTTTTTTTTT
Usually Kd stands for a measure of binding affinity in units of concentration. Turning to B2, the Kd in data set [2] worked out at 39 ± 12 nM.
